Tests used:
human plasma clots = test: Clot lysis assay of Pi IgG, Fab and chimeric Fab, urokinase; assay type: biochemical; settings: 25 nM-400 nM, 30 min
Protocol: FIGS. 4A-4D show comparative inhibition of factor V cleavage and human clot fibrinolysis (dissolution) by Pi, EACA and a2AP. […] The relative migration of molecular weight standards is shown (kDa). […] Human plasma was clotted with CaCl2 (10 mM) and thrombin (1 U/ml) in the presence of trace amounts of 1251 fibrinogen for 1 h at 37 deg. C. After washing in 1 ml of TBS pH 7.4, tPA (5 nM) was added in the presence of various amounts of Pi (62.5 to 1000 nM), EACA (0.125 mM to 2 mM) or no inhibitor. After 2.5 h the amount of fibrinolysis was determined by measuring the amount of 125I-fibrin dissolved in the supernatant. Means of duplicate observations are shown. […] Clots were formed as above in the presence of human plasminogen (2 uM) and a2AP (1 uM) or Pi (1 uM) and various amounts of tPA (0-10 nM). Clot dissolution was monitored in duplicate over 2 h in microtiter plate wells at A405 nm. […] The amount of clot lysis was determined as described in Methods.
The effects of Pi IgG, Fab or chimeric Fab were also compared in a clot lysis assay in microtiter plates. […] C. was monitored at 405 nm. The percent clot dissolution at 30 min. was determined as the percent change in peak turbidity from baseline=100%×(peak absorbance−30 min. absorbance)/(peak absorbance−baseline absorbance).

[1] = target: protease domain of reduced human plasmin (Homo sapiens, UniProt P00747); test: Immunoblotting of reduced human plasmin; assay type: binding
Protocol: FIGS. 1A-1D show binding specificity and avidity of Pi for human plasmin. […] Relative migration of molecular standards (kDa) is shown. […] Wells of a microtiter plate were coated with native (wild-type, WT) or various microplasmin loop mutants (5 ug/ml). After blocking, Pi, a polyclonal rabbit anti-plasmin (plasmin Ab) or a non-reactive mouse (anti-digoxin, control) antibody (1 ug/ml) were added to wells. The bound antibodies (Pi, control) were detected by a secondary anti-mouse peroxidase (1:10,000) and the plasmin antibodies were detected by anti-rabbit peroxidase antibody (1:5,000) followed by TMB substrate with monitoring at A405. […] Wells of microtiter plate were coated with human plasminogen (2 ug/ml). After blocking and washing, various concentrations of purified Pi (shown) were added for 1 h. After washing the amount of antibody bound was detected by a secondary anti-mouse antibody followed by TMB substrate with monitoring at A405 nm. Data shown the means±SE of triplicate observations, experiments repeated at least twice. The data were analyzed with Graphpad Prism, r=0.95.

Plasmin = Plasmin (Homo sapiens, UniProt P00747); test: Velocity of S2251 substrate cleavage (Michaelis-Menten); assay type: biochemical; settings: plasmin 100 nM, Pi 50 nM, S2251 0.1 to 4 mM
Protocol: FIGS. 2A-2D show comparative inhibition of plasmin activity by Pi EACA and a2AP. […] The percent residual activity of plasmin as a function of the log concentration of inhibitor is shown. […] Human plasmin (100 nM, Hematologic Technologies, Inc.) was mixed with or without Pi (50 nM) in the presence of the substrate S2251 (0.1 to 4 mM). The initial rate of substrate cleavage (6 min.) was monitored at A405. Data were plotted and analyzed using Michaelis-Menten kinetics by the Graphpad Prism Program. Means (duplicate observations) are shown and are representative of 4 separate experiments. […] The means of duplicate observations are shown. […] Plasmin (25 nM) was mixed with various concentrations (0-200 nM) of mouse Fab or chimeric Fab (cFab) and S2251 (0.5 mM) in TBS buffer pH 7.4. Plasmin activity was measured by the release of paranitroanilide product at A405 over time.
The effect of Pi on the velocity of substrate cleavage by human plasmin was examined. Human plasmin (100 nM, Hematologic Technologies, Inc.) was mixed with or without Pi (50 nM) in the presence of the substrate S2251 (0.1 to 4 mM). The initial rate of substrate cleavage (6 min.) was monitored at A405. Data were plotted and analyzed using Michaelis-Menten kinetics by the Graphpad Prism Program.

[2] = test system: African green monkey clots; test: Primate clot lysis, microtiter plate, urokinase; assay type: biochemical; settings: African green monkey plasma, Pi 0-2000 nM, urokinase 10 U
Protocol: (§1) FIGS. 3A-3D show binding and inhibitory specificity of Pi. […] The effect of various concentrations of Pi (0-2000 nM) on clots formed with human, baboon or African green monkey plasmas. Clot lysis was measured in microtiter plates after addition of urokinase as described in Methods.
(§2) The ability of Pi to inhibit primate clot lysis was also examined in a microtiter plate assay. Human, baboon or African green monkey plasma (5 ul) was added to 96-well plates in the presence of various concentrations of Pi (0-2000 nM), CaCl2 (2 mM), thrombin (0.125 U/ml) and human fibrinogen (2 mg/ml) and urokinase (10 U). The wells were incubated at 37° C., clot lysis was recorded kinetically for 120 min. and the time required for complete clot lysis was recorded.

human clots = test: Primate clot lysis, microtiter plate, urokinase; assay type: biochemical; settings: human plasma, Pi 0-2000 nM, urokinase 10 U
Protocol: as §1, §2

baboon clots = test: Primate clot lysis, microtiter plate, urokinase; assay type: biochemical; settings: baboon plasma, Pi 0-2000 nM, urokinase 10 U
Protocol: as §1, §2

[3] = target: plasmin-mediated cleavage of factor V (Homo sapiens, UniProt P00747); test: Factor V cleavage by plasmin, SDS-PAGE; assay type: biochemical; settings: EACA 1 mM or Pi 5 ug, 1 hr RT
Protocol: FIGS. 4A-4D show comparative inhibition of factor V cleavage and human clot fibrinolysis (dissolution) by Pi, EACA and a2AP. […] The relative migration of molecular weight standards is shown (kDa). […] Human plasma was clotted with CaCl2 (10 mM) and thrombin (1 U/ml) in the presence of trace amounts of 1251 fibrinogen for 1 h at 37 deg. C. After washing in 1 ml of TBS pH 7.4, tPA (5 nM) was added in the presence of various amounts of Pi (62.5 to 1000 nM), EACA (0.125 mM to 2 mM) or no inhibitor. After 2.5 h the amount of fibrinolysis was determined by measuring the amount of 125I-fibrin dissolved in the supernatant. Means of duplicate observations are shown. […] Clots were formed as above in the presence of human plasminogen (2 uM) and a2AP (1 uM) or Pi (1 uM) and various amounts of tPA (0-10 nM). Clot dissolution was monitored in duplicate over 2 h in microtiter plate wells at A405 nm. […] Human plasma clots were mixed with various concentrations of Pi IgG, Pi Fab and chimeric Pi Fab (25 nM-400 nM) and plasmin was activated by urokinase. The amount of clot lysis was determined as described in Methods.
Factor V cleavage. Human factor V (2 ug, IHFV, Innovative Research) was mixed with plasmin (0.05 ug) for 1 hr at RT in the presence of EACA (1 mM), Pi (5 ug) or a control monoclonal antibody (digoxin, 5 ug). […] Protein bands were detected by staining with Coomassie blue dye.

Chain of plasmin-mediated cleavage of factor V (P00747 97-580 limits assumed): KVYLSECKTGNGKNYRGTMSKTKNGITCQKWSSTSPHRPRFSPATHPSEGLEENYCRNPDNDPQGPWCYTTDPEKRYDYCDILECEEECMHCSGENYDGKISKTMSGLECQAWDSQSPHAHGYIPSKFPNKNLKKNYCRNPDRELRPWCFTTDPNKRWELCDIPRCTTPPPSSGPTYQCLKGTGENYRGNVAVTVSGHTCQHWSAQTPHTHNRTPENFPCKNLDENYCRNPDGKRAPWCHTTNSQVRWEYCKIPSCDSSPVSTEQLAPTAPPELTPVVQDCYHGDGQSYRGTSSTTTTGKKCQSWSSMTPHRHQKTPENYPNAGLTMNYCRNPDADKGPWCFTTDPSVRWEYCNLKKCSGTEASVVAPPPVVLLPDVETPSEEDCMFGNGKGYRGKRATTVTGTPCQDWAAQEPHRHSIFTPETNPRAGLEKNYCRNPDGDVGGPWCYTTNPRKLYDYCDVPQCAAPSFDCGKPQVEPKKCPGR
Chain of plasmin-mediated cleavage of factor V (P00747 581-810 limits assumed): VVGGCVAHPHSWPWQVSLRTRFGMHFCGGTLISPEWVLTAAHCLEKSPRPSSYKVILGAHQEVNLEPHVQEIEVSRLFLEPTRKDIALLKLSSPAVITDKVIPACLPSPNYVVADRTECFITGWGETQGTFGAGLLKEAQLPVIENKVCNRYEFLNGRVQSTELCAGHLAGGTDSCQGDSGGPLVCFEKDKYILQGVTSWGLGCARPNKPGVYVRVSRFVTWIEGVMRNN
Chain of Plasmin (P00747 97-580 limits assumed): as the sequence (P00747 97-580 limits assumed) above
Chain of Plasmin (P00747 581-810 limits assumed): as the sequence (P00747 581-810 limits assumed) above
Chain of protease domain of reduced human plasmin (P00747 581-810 limits assumed): as above

B1: Pi: mouse monoclonal antibody plasmin inhibitor binding plasmin protease domain loops 4 and 5; LC SEQ ID NO:1, HC SEQ ID NO:4 (antibody)
heavy: EVKLLESGGGLVQPGGSLKLSCAASGFDFSRYWMSWVRQAPGKGLEWIGEINPDSSTINYTPSLKDKFIISRDNAKNSLYLQMSKVRSEDTALYYCASYCGYSYDALDCWGQGTSVTVSSAKTTPPSVYPLAPGSAAQTNSMVTLGCLVKGYFPEPVTVTWNSGSLSSGVHTFPAVLQSDLYTLSSSVTVPSSTWPSETVTCNVAHPASSTKVDKKIVPRDCGCKPCICTVPEVSSVFIFPPKPKDVLTITLTPKVTCVVVDISKDDPEVQFSWFVDDVEVHTAQTQPREEQFNSTFRSVSELPIMHQDWLNGKEFKCRVNSVAFPAPIEKTISKTKGRPKAPQVYTIPPPKEQMAKDKVSLTCMITDFFPEDITVEWQWNGQPAENYKNTQPIMDTDGSYFVYGKLNVQKSNWEAGNTFTCSVLHEGLHNHHTEKSLSHSPGK
light: DIQMTQSPSSLSASLGGKVSITCKASQDINKYISWYQHKPGKGPRLLIHYTSTLQPGIPSRFSGSGSGRDYSFSISNLEPEDIATYYCLQYDNLYTFGGGTKLEIKRADAAPTVSIFPPSSEQLTSGGASVVCFLNNFYPKDINVKWKIDGSERQNGVLNSWTDQDSKDSTYSMSSTLTLTKDEYERHNSYTCEATHKTSTSPIVKSFNWNEC
Human plasma clots
  inhibition of clot lysis by Pi molecular forms: effectively inhibited clot lysis
[1]
  binding by immunoblotting: bound specifically to the protease domain of plasmin
Plasmin
  effect on Vmax of plasmin cleavage of S2251: reduced the Vmax of plasmin cleavage of S2251
[2]
  effect on clot lysis: dose-related suppression
Human clots
  effect on clot lysis: markedly prolonged plasmin-induced fibrinolysis
Baboon clots
  effect on clot lysis: dose-related suppression
[3]
  effect on Factor V cleavage by plasmin: Factor V cleavage was attenuated
